Assay results from the supplement of paper PMC10724198.
± gives the standard deviation of the averaged measurements.

Test system: Saccharomyces cerevisiae
Experiment: protein stability index of tFT-peptide fusion (C-terminal peptide) (PSI (0-1 scale)); higher = more stable (slower turnover)
Settings: genetic background: wild type; temperature: 30 C
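Also: PSI is a weighted mean of sequencing reads over stability bins, variants kept only with over 10 reads, mCherry proximal and sfGFP distal, peptide attached via GGGS linker.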

Row | Sequence | protein stability index
1 | SVGHPAAVHHAR | 0.675 ± 0.068
2 | LRFGLRCPLYHL | 0.799 ± 0.11
3 | TRFLWYFVPTTK | 0.704 ± 0.071
4 | TPRSPFPPLPPP | 0.698 ± 0.049
5 | PPYSIPARAPHP | 0.7036 ± 0.0015
6 | CWGAGGRTVING | 0.68 ± 0.034
7 | GGLICRQGVGRG | 0.748 ± 0.033
8 | VRGRGRSWRRVK | 0.758 ± 0.18
9 | APLLQCPILARP | 0.588 ± 0.0067
10 | PLPAPPSTPSSP | 0.715 ± 0.034
11 | LAVPPSLPPPTR | 0.7254 ± 0.0063
12 | PPPSPLPSPPPS | 0.746 ± 0.043
13 | PAFGCTSRPFPG | 0.711 ± 0.031
14 | SPLPPHPPLPLL | 0.6395 ± 0.002
15 | DCKTCVVGCELF | 0.697 ± 0.043
16 | AGTVGRGVSGGR | 0.5746 ± 0.0044
17 | QKPKDYTEDKRD | 0.718 ± 0.11
18 | GVGGGVMGVGRV | 0.665 ± 0.01
19 | VCGGCCEVEVGM | 0.622 ± 0.041
20 | RSVGPPTLPTHP | 0.666 ± 0.023
21 | GDDVGTEVIVET | 0.684 ± 0.0094
22 | VRSGKGKNRWNK | 0.719 ± 0.024
23 | MWQSRSAYFGSN | 0.692 ± 0.075
24 | YLIGRIIYFFGR | 0.582 ± 0.0021
25 | PLSPPAPSPAPR | 0.644 ± 0.0071
26 | PPLSVLPFRFIL | 0.575 ± 0.048

Row | Sequence | protein stability index
27 | LSPSMSRLWGSK | 0.7365 ± 0.0033
28 | AMGSGLVWAGPA | 0.684 ± 0.03
29 | PPPPGSKPPPSP | 0.722 ± 0.028
30 | PLLLPLFSSSPP | 0.777 ± 0.085
31 | TPPPPPPFPLPP | 0.654 ± 0.031
32 | PVSPALTPFPPS | 0.705 ± 0.043
33 | PPSPPDSPPPAS | 0.665 ± 0.014
34 | CLLLSLRVPPFS | 0.638 ± 0.012
35 | ARVDGGGVRTDV | 0.7511 ± 0.0069
36 | LITCHSHKPQQI | 0.704 ± 0.098
37 | LSTMPLFPSLHR | 0.731 ± 0.025
38 | FGVTLGYFSSVE | 0.656 ± 0.017
39 | PHPTPSLPHSSP | 0.827 ± 0.043
40 | FCGFTSLCVGDL | 0.731 ± 0.039
41 | YYEVVCPLQHRI | 0.46 ± 0.16
42 | IIVWVGAGLWGV | 0.594 ± 0.011
43 | PPPPRSSPSPLP | 0.668 ± 0.077
44 | PRPLLLLPPATP | 0.703 ± 0.029
45 | SPPSATTLRAPS | 0.641 ± 0.037
46 | DLTPWLAPFRER | 0.797 ± 0.097
47 | GKLGSSPQLRYY | 0.704 ± 0.046
48 | VCGSILSVFRAY | 0.571 ± 0.0016
49 | VCRGWGVCGEWG | 0.6243 ± 0.0025
50 | CCFVLDLSASLL | 0.625 ± 0.076
51 | PPPAPRPPASPP | 0.69815 ± 0.00052
52 | GVWTPGPIWGRG | 0.7134 ± 0.00084

Row | Sequence | protein stability index
53 | TKCGESRENARI | 0.681 ± 0.022
54 | LSLSPLPAPCPP | 0.713 ± 0.071
55 | GTFCLFTPCVWM | 0.716 ± 0.044
56 | TLLVLGLSWGLP | 0.618 ± 0.044
57 | DLFPTLFFIRSR | 0.689 ± 0.073
58 | WPYDRHTRHRET | 0.767 ± 0.092
59 | GLSSNVTSSTLS | 0.685 ± 0.015
60 | LIALSLPSSFVF | 0.594 ± 0.025
61 | PSVPLAGFVCRA | 0.587 ± 0.11
62 | LGIGTWGHRGDD | 0.712 ± 0.015
63 | RKYEKEKYKKMI | 0.566 ± 0.013
64 | TTPTPPPALPLP | 0.69 ± 0.019
65 | WRSGLRGPAIYG | 0.707 ± 0.018
66 | THSPSPTTAPIP | 0.688 ± 0.011
67 | SFRLRSLVFGFF | 0.597 ± 0.067
68 | SLVVPVSAAQYV | 0.653 ± 0.028
69 | IQKNSGHPMKEA | 0.711 ± 0.023
70 | DLGVCCLLGDFG | 0.577 ± 0.0072
71 | IRWKEIIDKWSY | 0.844 ± 0.038
72 | AGANPRVGTFWV | 0.664 ± 0.032
73 | PPPPPPPDPVPP | 0.645 ± 0.039
74 | AGGGEASRGQAK | 0.596 ± 0.0062
75 | GIVGFSHGIISL | 0.703 ± 0.032
76 | TPSPAPPTPFTP | 0.659 ± 0.023
77 | ILGIESLVAGLL | 0.697 ± 0.062
78 | SRSFVPRNSPRI | 0.6609 ± 0.0051

Row | Sequence | protein stability index
79 | ARTADPAATPST | 0.687 ± 0.02
80 | PPCLPPASRPVL | 0.699 ± 0.0069
81 | WHDCLYLWADLG | 0.693 ± 0.04
82 | RVWEGGGGGDGC | 0.664 ± 0.047
83 | FGVSLWPGFLYL | 0.587 ± 0.0065
84 | KKNKLKDSIKNI | 0.663 ± 0.016
85 | LFHAPLFPPSSF | 0.657 ± 0.04
86 | STSDAFLTFPLQ | 0.678 ± 0.051
87 | PPHPARHRPPAS | 0.7321 ± 0.0016
88 | RTKENYKRRKEK | 0.702 ± 0.12
89 | GGRGLGVVGEVL | 0.72 ± 0.046
90 | WGIQGIKFFVGA | 0.7111 ± 0.0032
91 | GQKRKGTRSKVP | 0.696 ± 0.026
92 | PFSPLVPPLSFS | 0.76 ± 0.086
93 | ESRARCGEQAIY | 0.641 ± 0.066
94 | AFCPLLLRGTAP | 0.697 ± 0.045
95 | PSPLPPVPPPPP | 0.639 ± 0.095
96 | IRRTSENEEETW | 0.673 ± 0.043
97 | CSLLFFFLLSFG | 0.521 ± 0.021
98 | SLPLPPPSPPHV | 0.676 ± 0.018
99 | KVMSLACRLTSE | 0.843 ± 0.11
100 | VWVWVGGGSRGC | 0.7121 ± 0.0041
101 | ERRKGGEKGKKK | 0.691 ± 0.047
